# T1: inhibin B (UniProt P05111 233-366; P09529 293-407)
# T1 sequence (looked up) 1: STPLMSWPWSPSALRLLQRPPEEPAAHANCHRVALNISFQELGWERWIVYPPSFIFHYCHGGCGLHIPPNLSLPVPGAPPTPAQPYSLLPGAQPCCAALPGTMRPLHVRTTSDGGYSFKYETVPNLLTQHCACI
# T1 sequence (looked up) 2: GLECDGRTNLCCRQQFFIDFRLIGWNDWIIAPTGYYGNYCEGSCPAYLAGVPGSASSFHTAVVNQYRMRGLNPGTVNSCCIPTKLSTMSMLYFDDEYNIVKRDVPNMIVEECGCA
# B1: murine TGFBR3L extracellular domain (R36-R211) (domain or fragment, UniProt D3YZZ2 36-211, looked up)
# chain: RRPLFSLELSDAEDAFPRRAGPLEVPADSHVFVQAALARPSPRWGLALHRCSVTPSSRPTLGPALVLLRGGCPADDSVSFSPPPRPDAASVSRFSFRLRPVFNASVQFLHCQISRCRRRSSHHRRAVRLTPVPLTPPAPLRCLPQDEACAGSSLSLGTDSPHLHMLTQPIVVTIPR
# Biological target: T1, inhibin B
# Assay: SPR
binder,measurement,value
B1,Kd,52 nM

# Reference: paper PMC8673766 (Science Advances, 2021)
